Starred links: 1 amine or outer side, 2 acyl side, 3 side chain; linkers in the order of their positions; H or OH if unused. Non-standard residues stand in square brackets, D forms with d. *: point of attachment. AC4Abu = α-carboxy-4-aminobutyric acid, O=C(C(CCN[*:1])C(=O)[*:3])[*:2]; dBip = N[C@H](Cc1ccc(-c2ccccc2)cc1)C(=O)O; Oic = O=C(O)[C@@H]1C[C@@H]2CCCC[C@@H]2N1; Phe(4-Cl) = N[C@@H](Cc1ccc(Cl)cc1)C(=O)O; dPhe(4-Cl) = N[C@H](Cc1ccc(Cl)cc1)C(=O)O; Heptadecanoyl = CCCCCCCCCCCCCCCCC(=O)*; Phe(4-I) = N[C@@H](Cc1ccc(I)cc1)C(=O)O; γGlu = O=C(O)[C@H](CCC(=O)[*:2])N[*:1]; C12 diacid = O=C(O)CCCCCCCCCCC(=O)*; NMeR = CN[C@@H](CCCNC(=N)N)C(=O)O; hArg = N=C(N)NCCCC[C@H](N)C(=O)O; Cha = N[C@@H](CC1CCCCC1)C(=O)O; NMeL = CN[C@@H](CC(C)C)C(=O)O; Nle = CCCC[C@H](N)C(=O)O; Hexanoyl = CCCCCC(=O)*; AEEA = NCCOCCOCC(=O)O; Aib = CC(C)(N)C(=O)O; Ahx = NCCCCCC(=O)O

From patent US10941182 (Amgen, dated 2021) come the findings set out here.

Sequences and labels used below:
T1: human APJ receptor (human, UniProt P35414 1-380)
T1 sequence (looked up): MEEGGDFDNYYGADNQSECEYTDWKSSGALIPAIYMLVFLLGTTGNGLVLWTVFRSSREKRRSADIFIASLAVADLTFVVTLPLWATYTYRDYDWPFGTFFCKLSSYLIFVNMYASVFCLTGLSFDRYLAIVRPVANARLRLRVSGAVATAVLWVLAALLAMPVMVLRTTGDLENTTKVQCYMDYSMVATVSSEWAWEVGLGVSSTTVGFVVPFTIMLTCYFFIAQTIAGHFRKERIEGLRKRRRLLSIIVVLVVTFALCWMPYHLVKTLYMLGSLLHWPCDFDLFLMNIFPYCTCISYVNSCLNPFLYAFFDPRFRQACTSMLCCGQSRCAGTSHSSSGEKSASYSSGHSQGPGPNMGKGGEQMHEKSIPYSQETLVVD

T2: rat APJ receptor (rat, UniProt Q9JHG3 1-377)
T2 sequence (looked up): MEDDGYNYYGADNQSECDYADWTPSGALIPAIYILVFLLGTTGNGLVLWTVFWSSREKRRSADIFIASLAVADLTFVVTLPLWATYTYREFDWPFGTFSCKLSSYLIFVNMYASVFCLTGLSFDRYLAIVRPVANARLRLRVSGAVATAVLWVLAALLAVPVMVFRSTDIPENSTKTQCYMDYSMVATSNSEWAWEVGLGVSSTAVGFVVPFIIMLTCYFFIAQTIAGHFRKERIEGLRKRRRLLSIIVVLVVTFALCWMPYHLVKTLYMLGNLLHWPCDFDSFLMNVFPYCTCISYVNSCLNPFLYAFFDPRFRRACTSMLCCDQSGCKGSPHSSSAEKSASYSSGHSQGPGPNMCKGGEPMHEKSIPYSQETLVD

B1: SEQ ID NO: 116 (peptide)
peptide: QRPRLSHKGPXPF
modifications: {H2}[MerPr](10K mPEG acetamide)Q[NMehArg]P[NMeArg][aMeLeu]SHKGP[Nle]P[4-Cl-F]{COOH}
B2: SEQ ID NO: 566 (peptide)
peptide: Hexanoyl-[Ahx][AC4Abu][AEEA][AEEA][hArg][dR]Q[hArg]P[dR][NMeL]SHKG[Oic][Phe(4-I)]P[dBip]-OH
SMILES: CCCCCC(=O)NCCCCCC(=O)NCCC(C(=O)O)C(=O)NCCOCCOCC(=O)NCCOCCOCC(=O)N[C@@H](CCCCNC(=N)N)C(=O)N[C@H](CCCNC(=N)N)C(=O)N[C@@H](CCC(N)=O)C(=O)N[C@@H](CCCCNC(=N)N)C(=O)N1CCC[C@H]1C(=O)N[C@H](CCCNC(=N)N)C(=O)N(C)[C@@H](CC(C)C)C(=O)N[C@@H](CO)C(=O)N[C@@H](Cc1c[nH]cn1)C(=O)N[C@@H](CCCCN)C(=O)NCC(=O)N1[C@H](C(=O)N[C@@H](Cc2ccc(I)cc2)C(=O)N2CCC[C@H]2C(=O)N[C@H](Cc2ccc(-c3ccccc3)cc2)C(=O)O)C[C@@H]2CCCC[C@@H]21
B3: SEQ ID NO: 562 (peptide)
peptide: Hexanoyl-[AC4Abu][AEEA][AEEA]QRP[NMeR][Cha]SHKG[Oic][Nle][Aib][Phe(4-Cl)]-OH
SMILES: CCCCCC(=O)NCCC(C(=O)O)C(=O)NCCOCCOCC(=O)NCCOCCOCC(=O)N[C@@H](CCC(N)=O)C(=O)N[C@@H](CCCNC(=N)N)C(=O)N1CCC[C@H]1C(=O)N(C)[C@@H](CCCNC(=N)N)C(=O)N[C@@H](CC1CCCCC1)C(=O)N[C@@H](CO)C(=O)N[C@@H](Cc1c[nH]cn1)C(=O)N[C@@H](CCCCN)C(=O)NCC(=O)N1[C@H](C(=O)N[C@@H](CCCC)C(=O)NC(C)(C)C(=O)N[C@@H](Cc2ccc(Cl)cc2)C(=O)O)C[C@@H]2CCCC[C@@H]21
B4: SEQ ID NO: 506 (peptide)
peptide: Hexanoyl-[γGlu][AEEA][AEEA][AEEA][hArg]Q[hArg]P[NMeR][Cha]SHKG[Oic][Nle]P[Phe(4-Cl)]-OH
SMILES: CCCCCC(=O)N[C@@H](CCC(=O)NCCOCCOCC(=O)NCCOCCOCC(=O)NCCOCCOCC(=O)N[C@@H](CCCCNC(=N)N)C(=O)N[C@@H](CCC(N)=O)C(=O)N[C@@H](CCCCNC(=N)N)C(=O)N1CCC[C@H]1C(=O)N(C)[C@@H](CCCNC(=N)N)C(=O)N[C@@H](CC1CCCCC1)C(=O)N[C@@H](CO)C(=O)N[C@@H](Cc1c[nH]cn1)C(=O)N[C@@H](CCCCN)C(=O)NCC(=O)N1[C@H](C(=O)N[C@@H](CCCC)C(=O)N2CCC[C@H]2C(=O)N[C@@H](Cc2ccc(Cl)cc2)C(=O)O)C[C@@H]2CCCC[C@@H]21)C(=O)O
B5: SEQ ID NO: 349 (peptide)
peptide: {C12 diacid}-[γGlu][AEEA][AEEA]Q[hArg]P[dR][NMeL]SHKG[Oic][Phe(4-I)]P[dBip]-OH
SMILES: CC(C)C[C@@H](C(=O)N[C@@H](CO)C(=O)N[C@@H](Cc1c[nH]cn1)C(=O)N[C@@H](CCCCN)C(=O)NCC(=O)N1[C@H](C(=O)N[C@@H](Cc2ccc(I)cc2)C(=O)N2CCC[C@H]2C(=O)N[C@H](Cc2ccc(-c3ccccc3)cc2)C(=O)O)C[C@@H]2CCCC[C@@H]21)N(C)C(=O)[C@@H](CCCNC(=N)N)NC(=O)[C@@H]1CCCN1C(=O)[C@H](CCCCNC(=N)N)NC(=O)[C@H](CCC(N)=O)NC(=O)COCCOCCNC(=O)COCCOCCNC(=O)CC[C@H](NC(=O)CCCCCCCCCCC(=O)O)C(=O)O
B6: SEQ ID NO: 286 (peptide)
peptide: Hexanoyl-[γGlu][AEEA][AEEA][hArg][dR]Q[hArg]P[dR][NMeL]SHKG[Oic][Phe(4-I)]P[dBip]-OH
SMILES: CCCCCC(=O)N[C@@H](CCC(=O)NCCOCCOCC(=O)NCCOCCOCC(=O)N[C@@H](CCCCNC(=N)N)C(=O)N[C@H](CCCNC(=N)N)C(=O)N[C@@H](CCC(N)=O)C(=O)N[C@@H](CCCCNC(=N)N)C(=O)N1CCC[C@H]1C(=O)N[C@H](CCCNC(=N)N)C(=O)N(C)[C@@H](CC(C)C)C(=O)N[C@@H](CO)C(=O)N[C@@H](Cc1c[nH]cn1)C(=O)N[C@@H](CCCCN)C(=O)NCC(=O)N1[C@H](C(=O)N[C@@H](Cc2ccc(I)cc2)C(=O)N2CCC[C@H]2C(=O)N[C@H](Cc2ccc(-c3ccccc3)cc2)C(=O)O)C[C@@H]2CCCC[C@@H]21)C(=O)O
B7: SEQ ID NO: 576 (peptide)
peptide: Heptadecanoyl-[AC4Abu][AEEA][AEEA][dQ]RP[NMeR][Cha]SHKG[Oic][Nle]P[dPhe(4-Cl)]-OH
SMILES: CCCCCCCCCCCCCCCCC(=O)NCCC(C(=O)O)C(=O)NCCOCCOCC(=O)NCCOCCOCC(=O)N[C@H](CCC(N)=O)C(=O)N[C@@H](CCCNC(=N)N)C(=O)N1CCC[C@H]1C(=O)N(C)[C@@H](CCCNC(=N)N)C(=O)N[C@@H](CC1CCCCC1)C(=O)N[C@@H](CO)C(=O)N[C@@H](Cc1c[nH]cn1)C(=O)N[C@@H](CCCCN)C(=O)NCC(=O)N1[C@H](C(=O)N[C@@H](CCCC)C(=O)N2CCC[C@H]2C(=O)N[C@H](Cc2ccc(Cl)cc2)C(=O)O)C[C@@H]2CCCC[C@@H]21

For one experiment, the target named is T1, human APJ receptor. In words: cell-based or functional assay.
Take B1: the “EC50 Human APJ Receptor” value came out at 9.71 nM.
Still for that read-out and setting: for XXXQRPRLSHKGPXPF ({hexanoyl}[AC4Abu][Aeea][Aeea]QR[aMePro][hArg][aMeLeu]SHKGP[Nle]P[4-Cl-F]{COOH}) [SEQ ID NO: 560] the value was 0.0553 nM.
With B2, the “EC50 Human APJ Receptor” value is 1.13 nM.
The same measure, in the same setting: next, B3: 3.85 nM; B4: 3.49 nM.
Still for that read-out and setting: for QRPRLSHKGPXPF ({H2}[MerPr](10K mPEG acetamide)QRP[NMeArg]LSHKGP[Nle]P[4-Cl-F]{COOH}) [SEQ ID NO: 115] the value was 1.66 nM; for B5, 64 nM.
In the case of B6, the “EC50 Human APJ Receptor” value turned out to be 1.62 nM.
The same measure, in the same setting: next, QRPRLSHKGPXPF ({H2}[MerPr](10K mPEG acetamide)QRP[hArg][aMeLeu]SHKGP[Nle]P[4-Cl-F]{COOH}) [SEQ ID NO: 117]: 19.7 nM.
Still for that read-out and setting: next, B7: 3.33 nM; KLRKHNXLQRRXMPLHSRVPFP ({H2}KLRKHN[Abu]LQRR[Abu]MPLHSRVPFP{COOH}) [SEQ ID NO: 14]: 0.301 nM.
The same measure, in the same setting: for XXXQRPRLSHKGPXPF ({HDA}[AC4Abu][Aeea][Aeea]QRP[NMeArg]LSHKGP[Nle]P[4-Cl-F]{COOH}) [SEQ ID NO: 496] the value was 0.0874 nM.

Another experiment addresses T2, rat APJ receptor. In words: cell-based or functional assay.
As to B1, the “EC50 Rat APJ Receptor” value worked out at 40.8 nM.
As for XXXQRPRLSHKGPXPF ({hexanoyl}[AC4Abu][Aeea][Aeea]QR[aMePro][hArg][aMeLeu]SHKGP[Nle]P[4-Cl-F]{COOH}) [SEQ ID NO: 560], the “EC50 Rat APJ Receptor” value was 0.274 nM.
Same read-out and setting: for B2 the value was 1.65 nM.
With B3, the “EC50 Rat APJ Receptor” value stood at 16.3 nM.
The same measure, in the same setting: for B4 the value was 13.2 nM; for QRPRLSHKGPXPF ({H2}[MerPr](10K mPEG acetamide)QRP[NMeArg]LSHKGP[Nle]P[4-Cl-F]{COOH}) [SEQ ID NO: 115], 6.49 nM; for B5, 47.8 nM.
B6: the “EC50 Rat APJ Receptor” value worked out at 3.07 nM.
Still for that read-out and setting: for QRPRLSHKGPXPF ({H2}[MerPr](10K mPEG acetamide)QRP[hArg][aMeLeu]SHKGP[Nle]P[4-Cl-F]{COOH}) [SEQ ID NO: 117] the value was 117 nM.
Same read-out and setting: for B7 the value was 5.17 nM; for KLRKHNXLQRRXMPLHSRVPFP ({H2}KLRKHN[Abu]LQRR[Abu]MPLHSRVPFP{COOH}) [SEQ ID NO: 14], 32.4 nM.
The same measure, in the same setting: for XXXQRPRLSHKGPXPF ({HDA}[AC4Abu][Aeea][Aeea]QRP[NMeArg]LSHKGP[Nle]P[4-Cl-F]{COOH}) [SEQ ID NO: 496] the value was 0.481 nM.
